Results on four molecules are retold here after patent US20260167718A1 (Merck Sharp & Dohme, published 2026).

In general, EC50 refers to the concentration that produces a half-maximal response. By Kd is commonly meant the constant that tells how readily two partners part at equilibrium. The term EC50 (read off the curve) denotes the concentration giving half of the maximal effect.

For assay [1], the target named is T1, human ILT3 expressed on cells (human, UniProt Q8NHJ6 22-448).
T1 construct: whole, on cells; also called huILT3; LILRB4
As to the kind of experiment: cELISA, CHO human ILT3 cells.

In assay [2] the target is T2, Rhesus monkey ILT3 expressed on CHO-K1 cells (rhesus monkey (Macaca mulatta)).
T2 construct: whole, on cells; also called rhILT3; CHO-rhesus ILT3
As to the kind of experiment: cELISA, CHO rhesus ILT3 cells. As for the experimental part:
(§1) Mouse anti-human ILT3 antibodies were tested for binding to human ILT3, and cross-reactivity to Rhesus monkey ILT3, human ILT5, human ILT7, human ILT8, and human ILT11 expressing CHO-K1 cells using a cell-based ELISA format. CHO-K1 cells were plated in 96-well tissue-culture plates in 50 μL of DMEM/F12, 10% BCS and gentamycin (CHO-K1 media). Cells were plated at either 2×10⁴ cells/well two days prior to the assay or 4×10⁴ cells/well one day prior to the assay. Media was removed from the wells prior to adding the test samples. Purified antibody was serially-diluted in CHO-K1 media and added to the CHO-K1 plates. The samples were incubated at room temperature for 30-60 minutes and plates were washed three times with PBS/05% Tween-20 using the cell wash program on the Biotek EL405x Select CW plate washer. Binding was detected using an HRP-conjugated goat anti-mouse IgG (Southern Biotech cat #1031-05) secondary antibody added at a 1:2000 dilution in CHO-K1 media and incubated at room temperature for 30-60 minutes. Assay plates were washed as above and developed with TMB and stopped with TMB stop solution (KPL cat #50-85-06). The absorbance at 450 nm—620 nm was determined. Mouse IgG1 (MIgG1) served as a control.

The target of assay [3] is T3, rhesus ILT3-His tagged recombinant protein (rhesus monkey (Macaca mulatta)).
T3 construct: also called ILT3_MM; not shown: His tag
T3 chain: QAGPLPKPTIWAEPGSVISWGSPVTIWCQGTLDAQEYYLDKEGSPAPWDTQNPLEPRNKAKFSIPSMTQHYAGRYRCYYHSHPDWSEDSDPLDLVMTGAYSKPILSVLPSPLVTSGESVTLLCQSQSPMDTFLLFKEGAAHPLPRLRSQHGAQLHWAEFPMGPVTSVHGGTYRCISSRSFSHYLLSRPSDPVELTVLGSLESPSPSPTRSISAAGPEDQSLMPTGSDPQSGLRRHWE
As to the kind of experiment: SPR (Biacore), rhesus ILT3-His. On the technique in general: SPR reads the build-up and loss of mass on a sensor chip optically.

The target of assay [4] is T2, Rhesus monkey ILT3 expressed on CHO-K1 …. As to the kind of experiment: cELISA, CHO rhesus ILT3 cells. This is another data set of the same source.
The target in assay [5] is T4, Human ILT3 (LILRB4) extracellular domain with C-terminal His Tag (human, UniProt Q8NHJ6 22-259).
T4 construct: the claims count residues 1-238 as the extracellular domain; also called human ILT3-His; ILT3_H
The assay is described as follows: SPR (Biacore), human ILT3-His; Table 7 value; Table 5 gives 1.79 × 10^-09 M. How it is done:
The binding kinetics and affinities of anti-human ILT3 clones for human or rhesus ILT3-His tagged recombinant protein were measured by surface plasmon resonance using a Biacore™ T200 system (GE Healthcare, Piscataway, NJ). HBS-EP+ buffer (BR-1006-69) was used as the running buffer. Anti-human Fc antibody (Human Fc Capture Kit, BR100839, GE Healthcare) was immobilized via amine coupling chemistry in all four flow cells on a Series S CM5 sensor chip (BR100530 or 29149603, GE Healthcare) following manufacturer instructions. Flow cell 1 was used as reference for background subtraction and was not used for capture. […] Following each injection cycle, all four flow cells were regenerated using 30 second injection of 3M MgCl₂ solution at a flow rate of 10 μL/minute. Reference subtracted sensorgrams were fit to a 1:1 Langmuir Binding Model in the Biacore™ T200 Evaluation Software (Version 2.0) to determine the association (ka) and dissociation (kd) rate constants and the equilibrium dissociation constant KD (=kd/ka).
Table 7 summarizes the binding kinetics and affinities for the ani-human ILT3 antibodies to recombinant human or rhesus ILT3.

For assay [6], the target named is T3, rhesus ILT3-His tagged recombinant …. As to the kind of experiment: SPR (Biacore), rhesus ILT3-His. The essentials:
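Antibodies captured on anti-human Fc surface, with human or rhesus ILT3-His as analyte in HBS-EP+ running buffer; reference flow cell subtracted, regeneration with 3M MgCl₂. ka and kd obtained from 1:1 Langmuir fits, KD = kd/ka.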

The target in assay [7] is T1, human ILT3 expressed on cells. The assay is described as follows: cELISA, CHO human ILT3 cells. How it is done: as §1
This is another data set of the same source.

Assay [8] concerns the target T4, Human ILT3 (LILRB4) extracellular …. The assay is described as follows: SPR (Biacore), human ILT3-His.
Assay [9] has as its target T5, human ILT7 expressed on CHO-K1 cells (human, UniProt P59901 24-499).
T5 construct: whole, on cells
The assay is described as follows: cell-based ELISA on CHO-K1 cells expressing human ILT7, HRP anti-mouse IgG, OD 450-650 nm. How it is done: as §1, with “The absorbance at 450 nm—620 nm was determined.” left out

For assay [10], the target named is T6, human ILT5 expressed on CHO-K1 cells (human, UniProt O75022 24-631).
T6 construct: whole, on cells; also called CHO-ILT5
T6 sequence (O75022 24-631): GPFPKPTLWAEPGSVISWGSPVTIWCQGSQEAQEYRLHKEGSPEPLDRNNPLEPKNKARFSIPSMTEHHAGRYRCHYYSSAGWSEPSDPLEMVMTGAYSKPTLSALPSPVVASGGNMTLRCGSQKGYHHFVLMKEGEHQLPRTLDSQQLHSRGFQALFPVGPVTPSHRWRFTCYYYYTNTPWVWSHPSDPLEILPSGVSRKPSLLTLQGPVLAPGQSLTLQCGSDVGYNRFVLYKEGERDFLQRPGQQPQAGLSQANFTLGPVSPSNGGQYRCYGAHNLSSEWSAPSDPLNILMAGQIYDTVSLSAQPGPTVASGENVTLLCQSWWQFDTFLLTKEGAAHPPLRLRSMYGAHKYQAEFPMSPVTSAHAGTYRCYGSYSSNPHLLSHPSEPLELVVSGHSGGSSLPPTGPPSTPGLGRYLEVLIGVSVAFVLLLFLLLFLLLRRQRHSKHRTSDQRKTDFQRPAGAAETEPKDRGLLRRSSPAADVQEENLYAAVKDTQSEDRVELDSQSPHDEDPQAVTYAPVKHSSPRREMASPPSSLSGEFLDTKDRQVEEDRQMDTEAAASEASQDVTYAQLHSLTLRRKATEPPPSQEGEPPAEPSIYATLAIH
The assay is described as follows: cell-based ELISA on CHO-K1 cells expressing human ILT5, HRP anti-mouse IgG, OD 450-650 nm. As for the experimental part: as §1, with “The absorbance at 450 nm—620 nm was determined.” left out
(In an ELISA, binding on a coated surface is turned into a signal by an enzyme label.)

Assay [11] has as its target T4, Human ILT3 (LILRB4) extracellular …. The assay is described as follows: SPR (Biacore), human ILT3-His. The source holds these as a separate data set.
Assay [12] has as its target T7, human ILT11 expressed on CHO-K1 cells (human, UniProt A6NI73 42-299).
T7 construct: whole, on cells
The assay is described as follows: cell-based ELISA on CHO-K1 cells expressing human ILT11, HRP anti-mouse IgG, OD 450-650 nm. As for the experimental part: as §1, with “The absorbance at 450 nm—620 nm was determined.” left out

Assay [13] deals with T8, human ILT8 expressed on CHO-K1 cells (human, UniProt Q6PI73 24-481).
T8 construct: whole, on cells; also called CHO-ILT8
T8 sequence (Q6PI73 24-481): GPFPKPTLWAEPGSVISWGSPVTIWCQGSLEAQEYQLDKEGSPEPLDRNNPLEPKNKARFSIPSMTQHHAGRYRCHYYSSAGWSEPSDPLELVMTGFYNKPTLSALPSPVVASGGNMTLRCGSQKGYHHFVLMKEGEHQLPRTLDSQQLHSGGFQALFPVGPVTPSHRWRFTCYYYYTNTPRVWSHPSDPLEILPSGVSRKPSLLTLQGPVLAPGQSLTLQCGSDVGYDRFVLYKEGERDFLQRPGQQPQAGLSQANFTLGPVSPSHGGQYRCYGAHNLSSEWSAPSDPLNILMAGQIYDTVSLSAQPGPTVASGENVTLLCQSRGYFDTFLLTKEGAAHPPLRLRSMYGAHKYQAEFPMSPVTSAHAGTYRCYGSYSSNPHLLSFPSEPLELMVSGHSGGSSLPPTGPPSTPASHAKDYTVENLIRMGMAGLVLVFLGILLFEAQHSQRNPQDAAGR
As to the kind of experiment: cell-based ELISA on CHO-K1 cells expressing human ILT8, HRP anti-mouse IgG, OD 450-650 nm. As for the experimental part: as §1, with “The absorbance at 450 nm—620 nm was determined.” left out

For assay [14], the target named is T1, human ILT3 expressed on cells. The assay is described as follows: cell-based or functional assay.
For assay [15], the target named is T2, Rhesus monkey ILT3 expressed on CHO-K1 …. The assay is described as follows: cell-based ELISA on CHO-K1 cells expressing Rhesus monkey ILT3, HRP anti-mouse IgG, OD 450-650 nm.
The target in assay [16] is T1, human ILT3 expressed on cells. As to the kind of experiment: cell-based ELISA on CHO-K1 cells expressing human ILT3, HRP anti-mouse IgG, OD 450-650 nm.

Like-named read-outs stand apart in the source and are kept apart here.

T7 sequence (A6NI73 42-299): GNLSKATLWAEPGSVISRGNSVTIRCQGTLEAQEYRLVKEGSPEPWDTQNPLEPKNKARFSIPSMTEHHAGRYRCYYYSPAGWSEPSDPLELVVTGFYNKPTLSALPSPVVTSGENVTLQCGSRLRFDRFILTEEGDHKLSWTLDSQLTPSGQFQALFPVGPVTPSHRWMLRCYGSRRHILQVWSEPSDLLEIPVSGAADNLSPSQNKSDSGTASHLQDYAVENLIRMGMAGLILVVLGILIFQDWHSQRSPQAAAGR
T5 sequence (P59901 24-499): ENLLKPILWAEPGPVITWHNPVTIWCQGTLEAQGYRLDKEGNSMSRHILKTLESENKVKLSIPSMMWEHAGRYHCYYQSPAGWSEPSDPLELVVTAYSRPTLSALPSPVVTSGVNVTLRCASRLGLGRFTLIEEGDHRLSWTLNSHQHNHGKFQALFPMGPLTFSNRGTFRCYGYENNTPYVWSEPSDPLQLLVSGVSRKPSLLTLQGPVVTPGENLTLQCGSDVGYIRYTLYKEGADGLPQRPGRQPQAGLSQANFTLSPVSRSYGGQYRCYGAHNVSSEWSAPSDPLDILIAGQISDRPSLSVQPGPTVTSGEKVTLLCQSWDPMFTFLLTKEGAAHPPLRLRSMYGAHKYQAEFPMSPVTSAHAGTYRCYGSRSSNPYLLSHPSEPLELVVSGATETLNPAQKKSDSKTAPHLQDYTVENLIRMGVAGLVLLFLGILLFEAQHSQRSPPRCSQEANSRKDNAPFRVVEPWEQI

B1: Rat anti-ILT3 mAb 40A6 IgG2a/Kappa (antibody, V domains shown)
VH: QVQLKESGPGLVQASETLSLTCTVSGFSLTSYSINWVRQSSGKGPEWMGRFWYDEGIAYNLTLESRLSISGDTSKNQVFLKMNSLRTGDTGTYYCTRDRDTVGITGWFAYWGQGTLVTVSS
VL: ETVMTQSPTSLSASIGERVTLNCKASQSVGVNVDWYQQTPGQSPKLLIYGSANRHTGVPDRFTGSGFGSDFTLTISDVEPEDLGVYYCLQYGSVPYTFGAGTKLELK
notes: Rat IgG2a/Kappa; also called p40A6; LB184.40A6.1C1
As for B1, the EC50 is 17.9 µg/mL in [1], 0.0259 µg/mL in assay [2], 25.9 µg/mL in [4] and 0.0179 µg/mL in assay [7]. Further, the dissociation constant (Kd) in assay [3] came out at 946 pM; in [5], 713 pM; in [6] it was 995 pM; in assay [8] it was 1790 pM.

B2: Mouse anti-ILT3 mAb 52B8 IgG2a/Kappa (antibody)
heavy: EVQLVESGGDLVKPGGSLKLSCAASGFTFSNYGMSWVRQTPDRRLEWVATISGGGDYTNYPDSMRGRFTISRDNAKNTLYLQMSSLKSEDTAMYYCGRRLWFRSLYYAMDYWGQGTSVTVSSAKTTAPSVYPLAPVCGDTTGSSVTLGCLVKGYFPEPVTLTWNSGSLSSGVHTFPAVLQSDLYTLSSSVTVTSSTWPSQSITCNVAHPASSTKVDKKIEPRGPTIKPCPPCKCPAPNLLGGPSVFIFPPKIKDVLMISLSPIVTCVVVDVSEDDPDVQISWFVNNVEVHTAQTQTHREDYNSTLRVVSALPIQHQDWMSGKEFKCKVNNKDLPAPIERTISKPKGSVRAPQVYVLPPPEEEMTKKQVTLTCMVTDFMPEDIYVEWTNNGKTELNYKNTEPVLDSDGSYFMYSKLRVEKKNWVERNSYSCSVVHEGLHNHHTTKSFSRTPGK
light: NIVLTQSPASLAVSLGQRATISCRASEKVDSFGNSFMHWYQQKPGQPPKLLIYLTSNLDSGVPARFSGSGSRTDFALTIDPVEADDAATYYCQQNNEDPYTFGGGTKLEIKRADAAPTVSIFPPSSEQLTSGGASVVCFLNNFYPKDINVKWKIDGSERQNGVLNSWTDQDSKDSTYSMSSTLTLTKDEYERHNSYTCEATHKTSTSPIVKSFNRNEC
notes: also called p52B8; LB181.52B8.1B1
As to B2, the EC50 in assay [1] is 0.0155 µg/mL; in assay [2], 0.0232 µg/mL; in assay [4], 23.2 µg/mL; in assay [7], 0.0155 µg/mL. For the same molecule, the dissociation constant Kd in assay [3] came to 24400 pM; in assay [6], 24400 pM; in [11] it was 658 pM; in assay [8], 658 pM. Moreover, the binding result in [9], in assay [10], in assay [12] and in assay [13] was “no binding (tested: 10000 ng/ml)” in each case.

B3: Chimeric anti-ILT3 52B8 mouse VH/human IgG4 (S228P):mouse VL/human Kappa (antibody)
heavy: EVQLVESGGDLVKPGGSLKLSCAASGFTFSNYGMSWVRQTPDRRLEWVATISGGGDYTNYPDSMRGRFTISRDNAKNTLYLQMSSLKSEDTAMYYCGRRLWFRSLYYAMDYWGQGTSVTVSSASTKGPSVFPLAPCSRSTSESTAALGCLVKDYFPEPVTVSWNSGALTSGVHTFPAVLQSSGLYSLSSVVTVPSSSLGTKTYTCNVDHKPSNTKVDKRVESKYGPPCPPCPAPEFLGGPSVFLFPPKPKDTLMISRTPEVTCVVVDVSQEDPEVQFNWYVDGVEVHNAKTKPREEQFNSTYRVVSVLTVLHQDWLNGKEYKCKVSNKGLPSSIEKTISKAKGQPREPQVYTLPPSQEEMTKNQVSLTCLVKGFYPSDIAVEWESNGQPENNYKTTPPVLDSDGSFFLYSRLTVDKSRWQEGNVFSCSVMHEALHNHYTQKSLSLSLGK
light: NIVLTQSPASLAVSLGQRATISCRASEKVDSFGNSFMHWYQQKPGQPPKLLIYLTSNLDSGVPARFSGSGSRTDFALTIDPVEADDAATYYCQQNNEDPYTFGGGTKLEIKRTVAAPSVFIFPPSDEQLKSGTASVVCLLNNFYPREAKVQWKVDNALQSGNSQESVTEQDSKDSTYSLSSTLTLSKADYEKHKVYACEVTHQGLSSPVTKSFNRGEC
notes: also called mAb 73; c52B8
For B3, the 50% effective concentration (EC50) in assay [1] was found to be 0.064 µg/mL; in [4] it was 0.091 µg/mL. In addition, the equilibrium dissociation constant (Kd) in assay [6] worked out at 9500 pM; in [11] it was 460 pM. Further, the “TNFα secretion by human monocyte-derived dendritic cells polarized with IL-10 and LPS; concentration giving half of the maximal increase (EC50)” value in assay [14] is approximately 0.0019 µg/mL.

B4: humanized anti-ILT3 monoclonal antibody 9B11 (antibody, V domains shown)
VH: EVQLVESGGGLVKPGGSLRLSCAASGFAFSSYDMSWVRQAPGKGLEWVSTISSSGSYTYYPDSVKGRFTISRDNAKNSLYLQMNSLRAEDTAVYYCARLWGAMDYWGQGTLVTVSS
VL: DIQMTQSPSSLSASVGDRVTITCRASQGLTNDLHWYQQKPGKAPKRLIYYASQSISGVPSRFSGSGSGTEFTLTISSLQPEDFATYYCQQSNSWPFTFGQGTKLEIK
As to B4, the “EC50 (read off the curve)” value was approximately 0.05 µg/mL in assay [15], approximately 0.02 µg/mL in [16] and approximately 0.02 µg/mL in assay [13].
